Positions count from the first letter of the chain named. Names may count otherwise.

The chains are these.
T1: EsCas13d, nuclease-dead (Eubacterium siraeum, UniProt B0MS50, R295A;H300A;R849A;H854A)
T1 sequence: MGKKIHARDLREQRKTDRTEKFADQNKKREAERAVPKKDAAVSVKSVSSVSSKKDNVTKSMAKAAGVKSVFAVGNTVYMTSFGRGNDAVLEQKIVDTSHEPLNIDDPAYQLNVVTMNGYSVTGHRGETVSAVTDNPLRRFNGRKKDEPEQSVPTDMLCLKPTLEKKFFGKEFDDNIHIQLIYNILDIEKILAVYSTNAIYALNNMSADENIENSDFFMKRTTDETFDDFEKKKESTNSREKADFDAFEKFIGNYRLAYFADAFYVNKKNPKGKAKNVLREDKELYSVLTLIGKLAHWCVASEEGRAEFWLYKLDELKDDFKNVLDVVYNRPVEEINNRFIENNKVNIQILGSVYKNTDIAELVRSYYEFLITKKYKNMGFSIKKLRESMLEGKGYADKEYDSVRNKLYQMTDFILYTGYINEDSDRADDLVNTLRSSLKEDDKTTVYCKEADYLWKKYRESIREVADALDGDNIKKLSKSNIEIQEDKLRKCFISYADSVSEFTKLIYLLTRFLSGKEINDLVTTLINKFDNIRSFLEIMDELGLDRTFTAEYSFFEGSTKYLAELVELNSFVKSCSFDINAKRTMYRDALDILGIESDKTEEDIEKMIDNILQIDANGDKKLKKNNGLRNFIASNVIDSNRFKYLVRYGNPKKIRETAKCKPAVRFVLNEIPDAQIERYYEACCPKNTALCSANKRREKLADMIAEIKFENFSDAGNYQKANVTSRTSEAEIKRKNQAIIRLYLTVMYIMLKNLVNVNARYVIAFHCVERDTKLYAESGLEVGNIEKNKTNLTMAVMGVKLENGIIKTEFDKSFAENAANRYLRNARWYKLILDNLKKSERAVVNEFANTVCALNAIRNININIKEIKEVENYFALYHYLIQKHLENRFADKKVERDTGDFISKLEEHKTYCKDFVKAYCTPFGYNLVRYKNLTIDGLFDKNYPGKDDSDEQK

B1: target 1 MT 5'PFS GAG 3'PFS UUA (mixed)
RNA 1: CACCCGUGCAAAAAUGCAGGGGUCUAAAACUGAGCGGAUAACCUCUCUAUGG
RNA 2: GGGAAUGGAUCCACAUCUACGAAUUCGAGCCAUAGAGAGGUUAUCCGCUCAUUAAGAUCGGAAGAGCACACGU
B2: target 1 MT 5'PFS GCU 3'PFS ACU (mixed)
RNA 1: B1 RNA 1
RNA 2: B1 RNA 2 with A28C, G29U, U52A, U53C, A54U
B3: target 1 MT 5'PFS UCA 3'PFS CUC (mixed)
RNA 1: B1 RNA 1
RNA 2: B1 RNA 2 with G27U, A28C, G29A, U52C, A54C
B4: target 1 MT 5'PFS ACG 3'PFS AAG (mixed)
RNA 1: B1 RNA 1
RNA 2: B1 RNA 2 with G27A, A28C, U52A, U53A, A54G
B5: target 1 MT 5'PFS CCU 3'PFS CUU (mixed)
RNA 1: B1 RNA 1
RNA 2: B1 RNA 2 with G27C, A28C, G29U, U52C, A54U
B6: target 1 MT 5'PFS AAU 3'PFS AUC (mixed)
RNA 1: B1 RNA 1
RNA 2: B1 RNA 2 with G27A, G29U, U52A, A54C
B7: target 1 MT 5'PFS ACA 3'PFS ACC (mixed)
RNA 1: B1 RNA 1
RNA 2: B1 RNA 2 with G27A, A28C, G29A, U52A, U53C, A54C
B8: target 1 MT 5'PFS UAA 3'PFS CUU (mixed)
RNA 1: B1 RNA 1
RNA 2: B1 RNA 2 with G27U, G29A, U52C, A54U
B9: target 1 MT 5'PFS GCA 3'PFS CUU (mixed)
RNA 1: B1 RNA 1
RNA 2: B1 RNA 2 with A28C, G29A, U52C, A54U
B10: target 1 U11C,A18C (mixed)
RNA 1: B1 RNA 1
RNA 2: B1 RNA 2 with A28U, G29A, A34C, U41C, U52C, U53C, A54G
B11: target 1 MT 5'PFS ACA 3'PFS ACA (mixed)
RNA 1: B1 RNA 1
RNA 2: B1 RNA 2 with G27A, A28C, G29A, U52A, U53C
B12: target 1 MT 5'PFS UAG 3'PFS UAU (mixed)
RNA 1: B1 RNA 1
RNA 2: B1 RNA 2 with G27U, U53A, A54U
B13: target 1 MT 5'PFS GUU 3'PFS UUG (mixed)
RNA 1: B1 RNA 1
RNA 2: B1 RNA 2 with A28U, G29U, A54G
B14: target 1 MT 5'PFS GGC 3'PFS UCC (mixed)
RNA 1: B1 RNA 1
RNA 2: B1 RNA 2 with A28G, G29C, U53C, A54C
B15: target 1 MT 5'PFS GGC 3'PFS UCG (mixed)
RNA 1: B1 RNA 1
RNA 2: B1 RNA 2 with A28G, G29C, U53C, A54G
B16: target 1 C2A,A18C (mixed)
RNA 1: B1 RNA 1
RNA 2: B1 RNA 2 with A28U, G29A, A34C, C50A, U52C, U53C, A54G
B17: target 1 MT 5'PFS UGC 3'PFS CAC (mixed)
RNA 1: B1 RNA 1
RNA 2: B1 RNA 2 with G27U, A28G, G29C, U52C, U53A, A54C
B18: target 1 MT 5'PFS GGC 3'PFS UCU (mixed)
RNA 1: B1 RNA 1
RNA 2: B1 RNA 2 with A28G, G29C, U53C, A54U
B19: target 1 MT 5'PFS ACA 3'PFS ACU (mixed)
RNA 1: B1 RNA 1
RNA 2: B1 RNA 2 with G27A, A28C, G29A, U52A, U53C, A54U
B20: target 1 MT 5'PFS UCA 3'PFS UAU (mixed)
RNA 1: B1 RNA 1
RNA 2: B1 RNA 2 with G27U, A28C, G29A, U53A, A54U
B21: target 1 MT 5'PFS UGC 3'PFS CAA (mixed)
RNA 1: B1 RNA 1
RNA 2: B1 RNA 2 with G27U, A28G, G29C, U52C, U53A
B22: target 1 MT 5'PFS CCU 3'PFS CUG (mixed)
RNA 1: B1 RNA 1
RNA 2: B1 RNA 2 with G27C, A28C, G29U, U52C, A54G
B23: target 1 MT 5'PFS UGA 3'PFS CCG (mixed)
RNA 1: B1 RNA 1
RNA 2: B1 RNA 2 with G27U, A28G, G29A, U52C, U53C, A54G
B24: target 1 MT 5'PFS GGC 3'PFS UCA (mixed)
RNA 1: B1 RNA 1
RNA 2: B1 RNA 2 with A28G, G29C, U53C
B25: target 1 MT 5'PFS UAG 3'PFS UAG (mixed)
RNA 1: B1 RNA 1
RNA 2: B1 RNA 2 with G27U, U53A, A54G
B26: target 1 MT 5'PFS UCA 3'PFS UAA (mixed)
RNA 1: B1 RNA 1
RNA 2: B1 RNA 2 with G27U, A28C, G29A, U53A
B27: target 1 insA 3' of 17,insU 3' of 5 (mixed)
RNA 1: B1 RNA 1
RNA 2: GGGAAUGGAUCCACAUCUACGAAUUCGUACCAUAGAAGAGGUUAUCCGUCUCACCGAGAUCGGAAGAGCACACGU
B28: target 1 MT 5'PFS ACU 3'PFS ACA (mixed)
RNA 1: B1 RNA 1
RNA 2: B1 RNA 2 with G27A, A28C, G29U, U52A, U53C
B29: target 1 MT 5'PFS UCA 3'PFS UAG (mixed)
RNA 1: B1 RNA 1
RNA 2: B1 RNA 2 with G27U, A28C, G29A, U53A, A54G
B30: target 1 MT 5'PFS UGC 3'PFS UUC (mixed)
RNA 1: B1 RNA 1
RNA 2: B1 RNA 2 with G27U, A28G, G29C, A54C
B31: target 1 insU 3' of 22,insG 3' of 16 (mixed)
RNA 1: B1 RNA 1
RNA 2: GGGAAUGGAUCCACAUCUACGAAUUCGUACUCAUAGAGGAGGUUAUCCGCUCACCGAGAUCGGAAGAGCACACGU
B32: target 1 MT 5'PFS UCA 3'PFS CUA (mixed)
RNA 1: B1 RNA 1
RNA 2: B1 RNA 2 with G27U, A28C, G29A, U52C
B33: target 1 MT 5'PFS UAG 3'PFS UAC (mixed)
RNA 1: B1 RNA 1
RNA 2: B1 RNA 2 with G27U, U53A, A54C
B34: target 1 MT 5'PFS UAA 3'PFS CUG (mixed)
RNA 1: B1 RNA 1
RNA 2: B1 RNA 2 with G27U, G29A, U52C, A54G
B35: target 1 MT 5'PFS UAA 3'PFS CUC (mixed)
RNA 1: B1 RNA 1
RNA 2: B1 RNA 2 with G27U, G29A, U52C, A54C
B36: target 1 MT 5'PFS GCU 3'PFS GAA (mixed)
RNA 1: B1 RNA 1
RNA 2: B1 RNA 2 with A28C, G29U, U52G, U53A
B37: target 1 MT 5'PFS UGC 3'PFS UUG (mixed)
RNA 1: B1 RNA 1
RNA 2: B1 RNA 2 with G27U, A28G, G29C, A54G

The target in the series is T1, EsCas13d, nuclease-dead. Nature of the series: crRNA (strand 1, pre-loaded); Mg2+; 40 mM Tris-HCl pH 7.5, 150 mM NaCl, 6 mM MgCl2, 1 mM DTT, 0.1% Tween-20, 0.2 mg/ml BSA; 25 C; 10 min per concentration, then washed. As to conditions: tags: His6-TwinStrep-SUMO cleaved; N-terminal SNAP kept (SNAP-Surface 488); label: 3' end held by stalled T7 RNA polymerase.
In general, Kd refers to the constant that tells how readily two partners part at equilibrium. Low values mean higher affinity, high ones lower affinity. As for B1, the Kd stood at 36 ± 9 nM. As for B2, the figure is 33 ± 11 nM.

The molecule B3 showed a Kd of 12.9 ± 3.1 nM. B4 yielded a Kd of 26.5 ± 11 nM.

The molecule B5 registered a Kd of 6.65 ± 1.95 nM. In the case of B6, the Kd was found to be 28.5 ± 12 nM. Regarding B7, the Kd is approximately 47.5 nM. As for B8, the figure is 48 ± 19 nM; as for B9, 11.8 ± 2.55 nM; as for B10, 75 ± 10 nM. The value for B11 was approximately 31 nM; that for B12 was 45 ± 9 nM. The value for B13 was 11.1 ± 1.05 nM. The molecule B14 displayed a Kd of 17.8 ± 2.5 nM. In the case of B15, binding was put at a Kd of 11.1 ± 1.15 nM. This Kd lies about 1.6-fold lower than the previous one. The molecule B16 showed a Kd of 47.9 ± 3.3 nM. The molecule B17 had an equilibrium dissociation constant (Kd) of approximately 65 nM.

For B18, the equilibrium dissociation constant (Kd) came out at 10 ± 1.2 nM. The value for B19 was 9.3 ± 2.9 nM; that for B20 was 11.5 ± 2.3 nM. The value for B21 was 63 ± 28.5 nM; that for B22 was 21 ± 7 nM.

Molecule B23 came in with a dissociation constant Kd of approximately 42.5 nM. Consider B24, for which the Kd came to 17.1 ± 3.7 nM.

In turn, B25 yielded a Kd of 73.5 ± 28 nM. As to B26, binding was characterised by a dissociation constant (Kd) of 9.45 ± 3.3 nM. Compared with the last molecule, the Kd is about 7.8-fold lower. B27 returned a Kd of 25.8 ± 2.8 nM. For B28, the equilibrium dissociation constant (Kd) was approximately 90 nM. The value for B29 was approximately 50 nM; that for B30 was 14 ± 3.7 nM; that for B31 was 48 ± 16 nM. The molecule B32 came in with a dissociation constant Kd of 9.45 ± 2.55 nM. As for B33, the figure is 16.8 ± 2.05 nM. The value for B34 was 25.8 ± 5.25 nM; that for B35 was 74 ± 28 nM; that for B36 was approximately 110 nM. Take B37: the Kd was determined as 10.7 ± 2.05 nM.

The values are drawn from paper PMC10786891, “Massively parallel profiling of RNA-targeting CRISPR-Cas13d”.
